Data taken from FireProtDB (doi:10.1021/bi00416a052).

B1: Ribonuclease HI, P0A7Y4 (parent)
chain: MLKQVEIFTDGSCLGNPGPGGYGAILRYRGREKTFSAGYTRTTNNRMELMAAIVALEALKEHCEVILSTDSQYVRQGITQWIHNWKKRGWKTADKKPVKNVDLWQRLDAALGQHQIKWEWVKGHAGHPENERCDELARAAAMNPTLEDTGYQVEV

Variants of: B1
Conditions: Escherichia coli (strain K12), Thermal, CD, NaCl 0.1 M, reversible: yes, structure 2RN2, whole UniProt chain shown
[1] = pH 3, 49.8 °C, glycine-HCl 10 mM
[2] = pH 5.5, 52 °C, Sodium acetate 20 mM

Row | Variant | ddG of mutation (higher = less stable) [1] [kcal/mol] | Tm (pH 3, glycine-HCl 10 mM) [°C] | change of melting temperature, mutant - wild type (higher = more stable) (pH 3, glycine-HCl 10 mM) [°C] | ddG of mutation (higher = less stable) [2] [kcal/mol] | Tm (pH 5.5, Sodium acetate 20 mM) [°C] | change of melting temperature, mutant - wild type (higher = more stable) (pH 5.5, Sodium acetate 20 mM) [°C]
1 | MLKQVEIFTDGSCLGNPGPGGYGAILRYRGREKTFSAGYTRTTNNRMELMAAIVALEALKEHCEVILSTDSQYIRQGITQWIHNWKKRGWKTADKKPVKNVDLWQRLDAALGQHQIKWEWVKGHAGHPENERCDELARAAAMNPTLEDTGYQVEV [V74I] | -0.7 | 52.2 | 2.4 | -0.6 | 54.1 | 2.1
2 | MLKQVEIFTDGSCLGNPGPGGYGAILRYRGREKTFSAGYTRTTNNRMELMAAIVALEALKEHCEVILSTDSQYLRQGITQWIHNWKKRGWKTADKKPVKNVDLWQRLDAALGQHQIKWEWVKGHAGHPENERCDELARAAAMNPTLEDTGYQVEV [V74L] | -1.1 | 53.5 | 3.7 | -0.9 | 55.3 | 3.3
3 | MLKQVEIFTDGSCLGNPGPGGYGAILRYRGREKTFSAGYTRTTNNRMELMAAIVALEALKEHCEVILSTDSQYARQGITQWIHNWKKRGWKTADKKPVKNVDLWQRLDAALGQHQIKWEWVKGHAGHPENERCDELARAAAMNPTLEDTGYQVEV [V74A] | 2.2 | 42.2 | -7.6 | 3.4 | 39.3 | -12.7
